Positions count from the first letter of the chain named. In names and notes the source's numbering stands.
B1: TYRP1 TCB containing optimized anti-CD3 antibody clone P033.078 (bispecific antibody, human IgG1, kappa, L234A L235A)
heavy 1: not shown
heavy 2: QVQLVQSGAEVKKPGASVKVSCKASGFNIKDYFLHWVRQAPGQGLEWMGWINPDNGNTVYAQKFQGRVTMTADTSTSTVYMELSSLRSEDTAVYYCTRRDYTYEKAALDYWGQGTLVTVSSASTKGPSVFPLAPSSKSTSGGTAALGCLVEDYFPEPVTVSWNSGALTSGVHTFPAVLQSSGLYSLSSVVTVPSSSLGTQTYICNVNHKPSNTKVDEKVEPKSCDKTHTCPPCPAPEAAGGPSVFLFPPKPKDTLMISRTPEVTCVVVDVSHEDPEVKFNWYVDGVEVHNAKTKPREEQYNSTYRVVSVLTVLHQDWLNGKEYKCKVSNKALGAPIEKTISKAKGQPREPQVCTLPPSRDELTKNQVSLSCAVKGFYPSDIAVEWESNGQPENNYKTTPPVLDSDGSFFLVSKLTVDKSRWQQGNVFSCSVMHEALHNHYTQKSLSLSP
light 1: DIQMTQSPSSLSASVGDRVTITCRASGNIYNYLAWYQQKPGKVPKLLIYDAKTLADGVPSRFSGSGSGTDFTLTISSLQPEDVATYYCQHFWSLPFTFGQGTKLEIKRTVAAPSVFIFPPSDRKLKSGTASVVCLLNNFYPREAKVQWKVDNALQSGNSQESVTEQDSKDSTYSLSSTLTLSKADYEKHKVYACEVTHQGLSSPVTKSFNRGEC
light 2: EVQLLESGGGLVQPGGSLRLSCAASGFTFESYAMNWVRQAPGKGLEWVSRIRSKYNEYATYYADSVKGRFTISRDDSKNTLYLQMNSLRAEDTAVYYCVRASNFPSSFVSYFGYWGQGTLVTVSSASVAAPSVFIFPPSDEQLKSGTASVVCLLNNFYPREAKVQWKVDNALQSGNSQESVTEQDSKDSTYSLSSTLTLSKADYEKHKVYACEVTHQGLSSPVTKSFNRGEC
notes: 2+1 IgG CrossFab, inverted, with charge modifications; knob-into-hole, P329G L234A L235A; also called CD3opt (P033.078); P033.078 in TCB format
B2: Humanized variant H1L2 of anti-idiotypic antibody 4.24.72 (IgG) (antibody, V domains shown)
VH: QVQLVQSGSELKKPGASVKVSCKASGYTVTDYSMNWVRQAPGQGLEWMGWINTETGEPRYTDDFKGRFVFSLDTSVSTAYLQISSLKAEDTAVYYCAREGDYDVFDYWGQGTLVTVSS
VL: DIVMTQSPDSLAVSLGERATINCKSSKSVSTSSYSYMHWYQQKPGQPPKLLIKYVSYLESGVPDRFSGSGSGTDFTLTISSLQAEDVAVYYCQHSREFPYTFGQGTKLEIK
notes: Produced and purified as IgG; also called Mask humanization variant H1L2
B3: Humanized variant H2L2 of anti-idiotypic antibody 4.24.72 (IgG) (antibody, V domains shown)
VH: B2 VH with K65T
VL: B2 VL
notes: Produced and purified as IgG; also called Mask humanization variant H2L2
B4: Humanized variant H3L2 of anti-idiotypic antibody 4.24.72 (IgG) (antibody, V domains shown)
VH: B2 VH with D62Q, D63G
VL: B2 VL
notes: Produced and purified as IgG; also called Mask humanization variant H3L2
B5: Humanized variant H1L1 of anti-idiotypic antibody 4.24.72 (IgG) (antibody, V domains shown)
VH: B2 VH
VL: B2 VL with K24R, S25A
notes: Produced and purified as IgG; also called Mask humanization variant H1L1

Legend:
[1] = biological target: T1, Human CD3ε stalk-Fc(knob)-Avi/CD3δ stalk-Fc(hole) (human); assay: SPR, TCB format, monovalent binding
T1 construct: Heterodimeric Fc fusion; also called human CD3ε/δ; Human CD3 epsilon stalk-Fc(knob)-Avi
Protocol: The experimental setup is schematically depicted in FIG. 3.
The dissociation was monitored for 800 s.
Kinetic constants were derived using the Biacore T200 Evaluation Software (GE Healthcare Life Sciences), to fit rate equations for 1:1 Langmuir binding by numerical integration. The half-life (t_{1/2}) of the interaction was calculated using the formula t_{1/2}=ln 2/koff.

[2] = biological target: T1, Human CD3ε stalk-Fc(knob)-Avi/CD3δ …; assay: SPR, biotinylated human CD3ε/δ on SA chip, TCB at 2 µg/ml; response normalised to anti-huIgG capture and referenced to the unstressed sample; after 2 weeks at pH 6.0/40 °C
Protocol: (§1) In order to assess the effect of the deamidation site removal and its effect on the stability of the antibodies, the optimized anti-CD3 antibodies (in TCB format) were incubated for 14 days at 37° C., pH 7.4 and at 40° C., pH 6 and further analyzed by SPR for their binding capability to human CD3ε/δ. Samples stored at −80° C. pH 6 were used as reference. The reference samples and the samples stressed at 40° C. were in 20 mM His, 140 mM NaCl, pH 6.0, and the samples stressed at 37° C. in PBS, pH 7.4, all at a concentration of 1.0 mg/ml. After the stress period (14 days) samples in PBS were dialyzed back to 20 mM His, 140 mM NaCl, pH 6.0 for further analysis.
(§2) All SPR experiments were performed on a Biacore T200 instrument (GE Healthcare) at 25° C. with HBS-P+ (10 mM HEPES, 150 mM NaCl pH 7.4, 0.05% Surfactant P20) as running and dilution buffer. Biotinylated human CD3ε/δ (see Example 3, SEQ ID NOs 41 and 42) as well as biotinylated anti-huIgG (Capture Select, Thermo Scientific, #7103262100) were immobilized on a Series S Sensor Chip SA (GE Healthcare, #29104992), resulting in surface densities of at least 1000 resonance units (RU). Anti-CD3 antibodies with a concentration of 2 μg/ml were injected for 30 s at a flow rate of 5 μl/min, and dissociation was monitored for 120 s. The surface was regenerated by injecting 10 mM glycine pH 1.5 for 60 s. Bulk refractive index differences were corrected by subtracting blank injections and by subtracting the response obtained from a blank control flow cell. For evaluation, the binding response 5 seconds after injection end was taken. To normalize the binding signal, the CD3 binding was divided by the anti-huIgG response (the signal (RU) obtained upon capture of the CD3 antibody on the immobilized anti-huIgG antibody). The relative binding activity was calculated by referencing each temperature stressed sample to the corresponding, non-stressed sample.

[3] = biological target: T1, Human CD3ε stalk-Fc(knob)-Avi/CD3δ …; assay: SPR, biotinylated human CD3ε/δ on SA chip, TCB at 2 µg/ml; response normalised to anti-huIgG capture and referenced to the unstressed sample; after 2 weeks at pH 7.4/37 °C
Protocol: as §1, §2

FOLR1 CD3 TCB P035.093 [4] = biological target: T2, FOLR1 CD3 TCB P035.093; assay: SPR, Biacore T200, 37 °C; FOLR1 CD3 TCB P035.093 captured on FOLR1-Fc (C1 chip), anti-idiotypic antibody as analyte; n=5; Stdev 198 s
T2 construct: Classical 2+1 TCB, knob-into-hole, PGLALA; the common light chain pairs with each of the Fabs; also called FOLR1 TCB CD3: P035.093
Protocol: (§3) Briefly, FOLR1-Fc was immobilized on a series s sensor chip C1 using standard amine coupling chemistry according to the manufacturer's instructions. […] The first flow cell was kept as mock surface. […] Dissociation was monitored for 300 s, the flow rate was set to 30 μl/min. The surface was regenerated by injecting 10 mM Glycine pH 2.0 for 60 s, followed by injecting 5 mM NaOH for 60 s at a flow rate of 5 μl/min. Bulk refractive index differences were corrected by subtracting the response obtained from flow cell one (mock surface) as well as by substracting buffer injections (double referencing). The derived curves were fitted to a 1:1 Langmuir binding model using the BIAevaluation software (GE Healthcare). […] All experiments were performed at 37° C. using HBS-N (10 mM HEPES, 150 mM NaCl pH 7.4, 0.05% Surfactant P-20).

FOLR1 CD3 TCB P035.093 [5] = biological target: T2, FOLR1 CD3 TCB P035.093; assay: SPR, Biacore T200, 37 °C; FOLR1 CD3 TCB P035.093 captured on FOLR1-Fc (C1 chip), anti-idiotypic antibody 1.2-100 nM as analyte; 1:1 Langmuir fit; n=5; Stdev 0.5 nM
Protocol: as §3

[6] = biological target: T3, biotinylated anti-human CD3 IgG (anti-CD3 P035.093) (biotinylated (site not stated)); assay: SPR; biotinylated anti-CD3 P035.093 IgG on CAP chip, anti-idiotypic IgG at 1 µg/ml; response normalised to anti-human IgG surface and to the unstressed sample; after 14 d at 37 °C pH 7.4
T3 construct: IgG format of this reagent is not described further; immobilised on a CAP chip; also called CD3 IgG (P035.093)
Protocol: Therefore, they were analyzed for thermal stability and remaining target binding after 14 d stress conditions (40° C. at pH6.0 or 37° C. at pH7.4).
(§4) Flow cell 1 was kept as mock surface. […] Dissociation was monitored for 30 s, the flow rate was set to 5 μl/min. The CAP chip was regenerated by injecting a mix of NaOH and Guadinium-hydrochloride for 120 s, provided in the biotin capture kit. Bulk refractive index differences were corrected by subtracting the response obtained from flow cell 1 (mock surface).

[7] = biological target: T3, biotinylated anti-human CD3 IgG …; assay: SPR; biotinylated anti-CD3 P035.093 IgG on CAP chip, anti-idiotypic IgG at 1 µg/ml; response normalised to anti-human IgG surface and to the unstressed sample; after 14 d at 40 °C pH 6.0
Protocol: as §4

FOLR1 CD3 TCB P035.093 [8] = biological target: T2, FOLR1 CD3 TCB P035.093; assay: SPR, Biacore T200, 37 °C; FOLR1 CD3 TCB P035.093 captured on FOLR1-Fc (C1 chip), anti-idiotypic antibody as analyte; n=5; Stdev 156 s
Protocol: as §3

FOLR1 CD3 TCB P035.093 [9] = biological target: T2, FOLR1 CD3 TCB P035.093; assay: SPR, Biacore T200, 37 °C; FOLR1 CD3 TCB P035.093 captured on FOLR1-Fc (C1 chip), anti-idiotypic antibody 1.2-100 nM as analyte; 1:1 Langmuir fit; n=5; Stdev 1.0 nM
Protocol: as §3

FOLR1 CD3 TCB P035.093 [10] = biological target: T2, FOLR1 CD3 TCB P035.093; assay: SPR, Biacore T200, 37 °C; FOLR1 CD3 TCB P035.093 captured on FOLR1-Fc (C1 chip), anti-idiotypic antibody as analyte; n=5; Stdev 222 s
Protocol: as §3

FOLR1 CD3 TCB P035.093 [11] = biological target: T2, FOLR1 CD3 TCB P035.093; assay: SPR, Biacore T200, 37 °C; FOLR1 CD3 TCB P035.093 captured on FOLR1-Fc (C1 chip), anti-idiotypic antibody as analyte; n=5; Stdev 66 s
Protocol: as §3

FOLR1 CD3 TCB P035.093 [12] = biological target: T2, FOLR1 CD3 TCB P035.093; assay: SPR, Biacore T200, 37 °C; FOLR1 CD3 TCB P035.093 captured on FOLR1-Fc (C1 chip), anti-idiotypic antibody 1.2-100 nM as analyte; 1:1 Langmuir fit; n=5; Stdev 0.6 nM
Protocol: as §3

T3 sequence (VH, as listed by the source, chain 1 of 2): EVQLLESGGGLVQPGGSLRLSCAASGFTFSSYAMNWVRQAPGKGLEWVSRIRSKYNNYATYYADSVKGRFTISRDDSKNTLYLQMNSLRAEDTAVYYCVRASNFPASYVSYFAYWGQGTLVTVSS
T3 sequence (VL, as listed by the source, chain 2 of 2): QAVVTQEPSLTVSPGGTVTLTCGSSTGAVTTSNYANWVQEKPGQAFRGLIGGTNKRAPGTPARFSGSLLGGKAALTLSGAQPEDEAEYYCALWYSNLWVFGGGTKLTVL

Binder	Kd (FOLR1 CD3 TCB P035.093 [5])	Rel. active concentration [%] [6]	Rel. active concentration [%] [7]	other results
B1	–	–	–	fold of binding half-life over CD3orig [1]: ≤ 6 fold; binding activity [%] [2]: 99%; binding activity [%] [3]: 99%
B2	1.2 nM	94%	97%	t1/2 diss (FOLR1 CD3 TCB P035.093 [4]): 6.6 min
B3	–	93%	98%	t1/2 diss (FOLR1 CD3 TCB P035.093 [8]): 6.2 min; Kd (FOLR1 CD3 TCB P035.093 [9]): 1.8 nM
B4	1.1 nM	94%	97%	t1/2 diss (FOLR1 CD3 TCB P035.093 [10]): 7.67 min
B5	–	93%	99%	t1/2 diss (FOLR1 CD3 TCB P035.093 [11]): 6.18 min; Kd (FOLR1 CD3 TCB P035.093 [12]): 1.8 nM
